Like-named read-outs stand apart in the source and are kept apart here. Ends that are not written are not given here.
Legend:
Assay in all cases: fluorescence polarisation
Gαi1 K248E, S252L = Gαi1 K248E, S252L (human, UniProt P63096 26-354, K248E | S252L)
[1] = target: T1, Gαi1 (N-terminal-truncated, hexahistidine-tagged human Gαi1), wild type (human, UniProt P63096 26-354)
[2] = target: Gαi1 F223V, L249F, Q147L, E245L (human, UniProt P63096 26-354, F223V | L249F | Q147L | E245L)
[3] = target: T1, Gαi1 (N-terminal-truncated, …); remark: listed apart in the source
Gαi1 F223V, L249F [4] = target: T2, Gαi1 F223V, L249F (human, UniProt P63096 26-354, F223V | L249F)
T2 sequence (P63096 26-354 F223V/L249F): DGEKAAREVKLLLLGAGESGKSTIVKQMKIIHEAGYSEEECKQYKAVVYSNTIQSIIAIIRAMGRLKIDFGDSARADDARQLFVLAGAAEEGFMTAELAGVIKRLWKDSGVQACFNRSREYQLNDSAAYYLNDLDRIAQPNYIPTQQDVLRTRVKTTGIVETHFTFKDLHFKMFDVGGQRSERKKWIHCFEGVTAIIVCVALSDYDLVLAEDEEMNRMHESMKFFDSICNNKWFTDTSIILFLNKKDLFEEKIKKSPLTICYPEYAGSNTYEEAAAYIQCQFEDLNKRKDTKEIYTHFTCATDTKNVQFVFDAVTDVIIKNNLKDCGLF

Gαi1 F223V, L249F [5] = target: T2, Gαi1 F223V, L249F; remark: listed apart in the source
Gαi1 I78S, A111Q = Gαi1 I78S, A111Q (human, UniProt P63096 26-354, I78S | A111Q)
Chain of Gαi1 I78S, A111Q (P63096 26-354 I78S/A111Q): as the sequence (P63096 26-354 F223V/L249F) above, with I53S, A86Q, V198F, F224L counted along it

Gαi1 E245L, L249A = Gαi1 E245L, L249A (human, UniProt P63096 26-354, E245L | L249A)
Chain of Gαi1 E245L, L249A (P63096 26-354 E245L/L249A): as the sequence (P63096 26-354 F223V/L249F) above, with V198F, E220L, F224A counted along it

T1 sequence (P63096 26-354): as the sequence (P63096 26-354 F223V/L249F) above, with V198F, F224L counted along it
Chain of Gαi1 K248E, S252L (P63096 26-354 K248E/S252L): as the sequence (P63096 26-354 F223V/L249F) above, with V198F, K223E, F224L, S227L counted along it
Chain of Gαi1 F223V, L249F, Q147L, E245L (P63096 26-354 Q147L/F223V/E245L/L249F): as the sequence (P63096 26-354 F223V/L249F) above, with Q122L, E220L counted along it

B1: GoLoco motif of RGS14 (496-531, Tenascin fusion) L503K (domain or fragment, UniProt O08773 496-531, looked up)
chain: DIEGLVEKLNRVQSSGAHDQRGLLRKEDLVLPEFLQ
modifications: also: 6-IAF fluorescein on the unique Cys (not in given chain)
Kd (Gαi1 K248E, S252L): 80 ± 10 nM

B2: GoLoco motif of RGS14 (496-531, Tenascin fusion) L504A, F529W (domain or fragment, UniProt O08773 496-531, looked up)
chain: DIEGLVELANRVQSSGAHDQRGLLRKEDLVLPEWLQ
modifications: also: 6-IAF fluorescein on the unique Cys (not in given chain)
Kd [1]: > 5000 nM | Kd [2]: 40 ± 100 nM | Kd [3]: ~5000 nM

B3: GoLoco motif of RGS14 (496-531, Tenascin fusion) L504A (domain or fragment, UniProt O08773 496-531, looked up)
chain: DIEGLVELANRVQSSGAHDQRGLLRKEDLVLPEFLQ
modifications: also: 6-IAF fluorescein on the unique Cys (not in given chain)
Kd [1]: 2400 ± 1000 nM | Kd (Gαi1 F223V, L249F [4]): > 5000 nM | Kd (Gαi1 F223V, L249F [5]): ~5000 nM

B4: GoLoco motif of RGS14 (496-531, Tenascin fusion) L519T (domain or fragment, UniProt O08773 496-531, looked up)
chain: DIEGLVELLNRVQSSGAHDQRGLTRKEDLVLPEFLQ
modifications: also: 6-IAF fluorescein on the unique Cys (not in given chain)
Kd [1]: 16000 ± 5000 nM | Kd (Gαi1 I78S, A111Q): > 20000 nM

B5: GoLoco motif of RGS14 (496-531, Tenascin fusion) V507M (domain or fragment, UniProt O08773 496-531, looked up)
chain: DIEGLVELLNRMQSSGAHDQRGLLRKEDLVLPEFLQ
modifications: also: 6-IAF fluorescein on the unique Cys (not in given chain)
Kd [1]: 1040 ± 60 nM | Kd (Gαi1 E245L, L249A): 50 ± 10 nM

B6: GoLoco motif of RGS14 (residues 496-531) expressed as a fusion to Tenascin, wild type (domain or fragment, UniProt O08773 496-531, looked up)
chain: DIEGLVELLNRVQSSGAHDQRGLLRKEDLVLPEFLQ
modifications: also: 6-IAF fluorescein on the unique Cys (not in given chain)
Kd [1]: 100 ± 20 nM | Kd (Gαi1 K248E, S252L): 320 ± 60 nM
